In publication PMC4319847 (PLoS ONE, 2015):

Molecular target: Full-length human importin-α1 (h-importin-α1) (1–526) (human, UniProt P52292 1-526)
Test: ITC
Settings: both partners purified

B1: SV40 NLS peptide (PKKKRKV) (peptide)
peptide: PKKKRKV
notes: source: synthetic peptide
- Kd: 102 ± 11 µM
